Source: patent publication US20240279345A1, “ALPHA 5 BETA 1 INTEGRIN BINDING AGENTS AND USES THEREOF” (PASITHEA THERAPEUTICS CORP., priority 2021, published 2024)
Numbering of substitutions follows the chain as printed. Names and notes keep the numbering of the source.

B1: A2-3B06: anti-α5β1 antibody, VH SEQ ID NO:42, VL SEQ ID NO:43 (antibody, V domains shown)
VH: QVQLKESGPGLVAPSQSLSITCTISGFSLTTYGVHWVRQPPGKGLEWLVVIWSDGSTTYNSALKSRLNITKDNSKSQVFLKMNSLQTDDTAMYYCVRHGGLLRRDAMDYWGQGTSVTVSS
VL: QIVLTQSPAIMSASLGERVTMTCTASSSVSSNSFHWYQQKPGSSPKLWLYSTSNLASGVPARFSGSGSGTSYSLTISSMEAEDAATYYCHQYLRSPPTFGGGTKLEIK
modifications: A2-3B06 VH Sequence; A2-3B06 VL Sequence
B2: A-15B08-T62A: human IgG4 chimera variant of A-15B08, Thr62 to Ala in CDRH2; VH SEQ ID NO:135, VL SEQ ID NO:26 (antibody, V domains shown)
VH: QVQLKESGPGLVAPSQSLSITCTISGFSLTSYGVHWVRQPPGKGLEWLVVIWSDGSTTYNSALKSRLSISKDNSKSQVFFKMNSLQTDDTAMYYCARHYDYDGDWFAYWGQGTLVTVSA
VL: B1 VL with S28R, F34L, L49I
modifications: human IgG4 constant regions; A-15B08-T62A VH Sequence; A-15B08 VL Sequence
B3: A2-6C10: hybridoma clone positive on K562 cells (antibody, V domains shown)
VH: B1 VH
VL: B1 VL
B4: A2-8H11: hybridoma clone positive on K562 cells (antibody, V domains shown)
VH: B1 VH
VL: B1 VL
B5: A2-9A11: hybridoma clone positive on K562 cells (antibody, V domains shown)
VH: B1 VH
VL: B1 VL

Key:
[1] = biological target: T1, recombinant human α5β1 integrin (rh-α5β1) (Homo sapiens, UniProt P05556+P08648); experiment: Plate-based ELISA reactivity to rh-α5β1; assay type: binding; details: selected for further characterization among α5 specific hybridomas (28 selected)
T1 construct: purchased R&D Systems 3230-A5
Protocol: (§1) The 249 positive hybridoma supernatants selected as described in Example 1 were screened for reactivity to rh-α5β1 in a plate-based ELISA. Immulon4 HBX ELISA 96-well plates (Thermo Fisher Scientific, Waltham, MA, cat. no. 3855) were coated with rh-α5β1 (R&D Systems, Minneapolis, MN 55413, cat. no. 3230-A5), at 1 μg/mL in PBS supplemented with 0.5 mM MgCl2, MnCl2 and CaCl2 and incubated overnight at 4° C. Plates were washed 3 times with Wash Buffer (1× Tris Buffered Saline containing 0.05% Tween20), blocked with 2% BSA in 1×TBS (made from 10× Thermo Scientific Blocker BSA (10×) in TBS; Thermo Fisher Scientific, Waltham, MA, cat. no. 37520) for 2 hours at room temperature (RT) then incubated with hybridoma supernatants diluted 1:10 with Standard Diluent (2% BSA, 1×TBS, 0.05% Tween20). Following a 1 hour incubation at RT, wells were washed 3 times, incubated with biotinylated goat anti-mouse secondary antibody at 1:8000 dilution (Invitrogen, Carlsbad, CA, cat. no. 62-6540) for 1 hour, washed 3 times, then incubated for 30 minutes with poly-HRP Streptavidin (Thermo Fisher Scientific, Waltham, MA, cat. no. N200), washed 4 times, incubated with TMB (Thermo Fisher Scientific, Waltham, MA, cat. no. N301) for 5-10 minutes, followed by addition of ELISA Stop Solution (Invitrogen, Carlsbad, CA, cat. no. SS04). Absorbance 450 nm was measured.

rh-α5β1 = rh-α5β1 (Homo sapiens, UniProt P05556+P08648); experiment: Competition binding studies by Biolayer Interferometry (epitope groups); details: for Response (nm) / % Response: secondary mAb pre-mixed with 20 nM rh-α5β1; for % Response: relative to antigen alone
Protocol: Epitope analysis via competition binding studies was performed using Biolayer Interferometry (BLI) on the 6 antibodies selected as described in Example 5. The anti-α5β1 FN blocking antibodies A2-7A05, C-14D12 and A-15B08 were immobilized on sensors and incubated with each of the other antibodies that had been preincubated with rh-α5β1, to determine whether this antibody-antigen association prevents or allows binding to the antibody on the sensor. The magnitude of observed binding (response) was compared to binding of antigen alone under the same conditions. If the overall response was greater than 120% of antigen binding alone, then the antibodies can pair with each other. If response was less than 80% of response of antigen binding alone, then the antibodies block each other. The protocol was as follows: preincubate the panel of antibodies with antigen (1 hr). Equilibrate the sensor (30 seconds (s))-->Load lead Ab on the sensor (700s)--->Quench (480s)--->Read baseline (480s)-->measure preincubated Ab+Ag association with loaded sensor (600s).

[2] = biological target: T2, recombinant mouse α5β1 (rm-α5β1) (Mus musculus, UniProt P09055+P11688); experiment: Plate-based ELISA cross-reactivity to rm-α5β1; assay type: binding; details: hybridoma supernatant diluted 1:10; plate coated with rm-α5β1
T2 construct: purchased R&D Systems 7728-A5
Protocol: as §1
In addition, hybridomas were tested for cross-reactivity to recombinant mouse α5β1 (rm-α5β1; R&D Systems, Minneapolis, MN 55413; cat. no. 7728-A5) using the same protocol as above except that the plates were coated with rm-α5β1.

rh-α4β1 = biological target: T3, rh-α4β1 (Homo sapiens, UniProt P05556+P13612); experiment: Plate-based ELISA reactivity to rh-α4β1 (α5 subunit specificity); assay type: binding; details: hybridoma supernatant diluted 1:10; plate coated with rh-α4β1
T3 construct: purchased R&D Systems 3230-A5 & 5668-A4
Protocol: as §1
In parallel the 249 hybridomas were screened for specificity to the human α5 subunit by testing for reactivity to rh-α4β1 (R&D Systems, Minneapolis, MN 55413; cat. no. 3230-A5 & 5668-A4). Any hybridoma that reacted to both rh-α4β1 and rh-α5β1 is likely to be β1 subunit specific and not considered α5 specific. Using the protocol described above, 29 hybridoma supernatants reacted strongly (>1.0 Absorbance 450 nm) with rh-α4β1 and were not considered to be α5 specific.

[3] = biological target: T4, binding of α5β1 integrin to fibronectin (FN) (Homo sapiens, UniProt P05556+P08648); experiment: Quantitative FN inhibition (FN-blocking) assay in ELISA format; assay type: biochemical; details: by ELISA
T4 construct: purchased Acro Biosystems IT1-H52W5
Description: To determine whether the 9 unique hybridoma clones selected as described in Example 4 were able to inhibit the binding of α5β1 integrin to fibronectin (FN), the antibodies were first purified from hybridoma supernatants by Protein A chromatography, protein concentrations measured by BCA assay (Pierce™ BCA Protein Assay Kit; Thermo Fisher Scientific, Waltham, MA, cat. no. 23225) and then tested in a quantitative FN inhibition assay in an ELISA format.
Immulon4 HBX ELISA 96-well plates were coated with FN by incubation overnight at 4° C. with 2.5 μg/mL human FN (R&D Systems, Minneapolis, MN 55413, cat. no. 1918-FN) in 1×PBS (0.01M phosphate buffer and 0.154M NaCl, pH 7.4). Plates were then washed 3 times with Wash Buffer (1× Tris Buffered Saline containing 0.05% Tween20), blocked with 2% BSA in 1×TBS for 2 hours at room temperature (RT). Antibodies were diluted in Standard Diluent (2% BSA, 1×TBS, 0.05% Tween20) containing 0.1 μg/mL rh-α5β1-6×His tagged protein (Acro Biosystems, Newark, DE, cat. no. IT1-H52W5), to generate an 11 point 1:3 antibody dilution series ranging from 10,000 ng/mL to 0.17 ng/mL. Isotype control antibody (Control Ab; Ms IgG2a EMD Millipore Corp, Billerica, MA, cat. no. PP102) was used to normalize data across different assay runs. For the assays, 100 uL of the antibody dilution series/His-tagged-α5β1 mixture was added to the wells after the blocking solution was removed and wells were washed 3 times. Following 1 hour at RT, the wells were washed 3 times, incubated with biotinylated Anti-6×His-Tag Ab (Invitrogen, Carlsbad, CA, cat. no. MAI-21315-BTIN) at 1:1000 in Standard Diluent for 1 hour, washed 3 times, incubated for 30 minutes with poly-HRP Streptavidin (Thermo Fisher Scientific, Waltham, MA, cat. no. N200), washed 4 times, incubated with TMB substrate (Thermo Fisher Scientific, Waltham, MA, cat. no. N301) for 2-5 minutes, followed by addition of ELISA Stop Solution (Invitrogen, Carlsbad, CA, cat. no. SS04). Absorbance 450 nm was measured. Data points were normalized to the isotype Control Ab values at each concentration and reported as % Absorbance 450 nm normalized to Control Ab. Non-linear regression analysis was used to fit curves (4-parameter) to the data using GraphPad Prism version 9.0.2 (GraphPad Software, LLC, San Diego, CA).
Freeze-thaw stability was tested on a small aliquot of each chimera antibody by overnight storage at −80° C. followed by thaw on ice, repeated three times. […] IC50s were calculated by non-linear regression analysis curve-fitting (4-parameter) of the ELISA data (FIG. 5) using GraphPad Prism version 9.0.2 (GraphPad Software, LLC, San Diego, CA). […]

T3 sequence (P13612 34-977 limits assumed): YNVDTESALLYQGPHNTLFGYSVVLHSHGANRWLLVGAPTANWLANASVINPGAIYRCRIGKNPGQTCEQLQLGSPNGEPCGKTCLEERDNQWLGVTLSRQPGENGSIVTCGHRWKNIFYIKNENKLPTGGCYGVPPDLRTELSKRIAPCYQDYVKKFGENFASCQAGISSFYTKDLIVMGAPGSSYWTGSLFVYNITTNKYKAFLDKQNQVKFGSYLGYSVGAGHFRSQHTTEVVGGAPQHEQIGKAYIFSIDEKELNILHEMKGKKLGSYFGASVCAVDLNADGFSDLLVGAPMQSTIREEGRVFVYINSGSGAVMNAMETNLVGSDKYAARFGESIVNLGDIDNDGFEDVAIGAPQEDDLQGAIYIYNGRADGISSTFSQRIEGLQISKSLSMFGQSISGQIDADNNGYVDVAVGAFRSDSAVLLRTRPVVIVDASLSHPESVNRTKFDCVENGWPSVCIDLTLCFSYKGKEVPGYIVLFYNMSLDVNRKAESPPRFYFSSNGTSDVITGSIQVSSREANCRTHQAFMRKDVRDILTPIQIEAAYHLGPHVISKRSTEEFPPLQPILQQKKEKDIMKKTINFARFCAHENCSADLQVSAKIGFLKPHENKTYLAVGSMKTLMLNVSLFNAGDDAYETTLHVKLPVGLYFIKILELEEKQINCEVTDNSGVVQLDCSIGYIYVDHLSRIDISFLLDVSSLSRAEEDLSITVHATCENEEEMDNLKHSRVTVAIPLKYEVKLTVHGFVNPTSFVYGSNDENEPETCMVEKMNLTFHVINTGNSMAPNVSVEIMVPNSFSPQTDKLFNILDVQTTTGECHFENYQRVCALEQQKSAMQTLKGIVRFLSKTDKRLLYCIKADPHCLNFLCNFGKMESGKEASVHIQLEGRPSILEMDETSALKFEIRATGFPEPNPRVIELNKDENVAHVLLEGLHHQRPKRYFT
T3 sequence (P05556 21-728 limits assumed): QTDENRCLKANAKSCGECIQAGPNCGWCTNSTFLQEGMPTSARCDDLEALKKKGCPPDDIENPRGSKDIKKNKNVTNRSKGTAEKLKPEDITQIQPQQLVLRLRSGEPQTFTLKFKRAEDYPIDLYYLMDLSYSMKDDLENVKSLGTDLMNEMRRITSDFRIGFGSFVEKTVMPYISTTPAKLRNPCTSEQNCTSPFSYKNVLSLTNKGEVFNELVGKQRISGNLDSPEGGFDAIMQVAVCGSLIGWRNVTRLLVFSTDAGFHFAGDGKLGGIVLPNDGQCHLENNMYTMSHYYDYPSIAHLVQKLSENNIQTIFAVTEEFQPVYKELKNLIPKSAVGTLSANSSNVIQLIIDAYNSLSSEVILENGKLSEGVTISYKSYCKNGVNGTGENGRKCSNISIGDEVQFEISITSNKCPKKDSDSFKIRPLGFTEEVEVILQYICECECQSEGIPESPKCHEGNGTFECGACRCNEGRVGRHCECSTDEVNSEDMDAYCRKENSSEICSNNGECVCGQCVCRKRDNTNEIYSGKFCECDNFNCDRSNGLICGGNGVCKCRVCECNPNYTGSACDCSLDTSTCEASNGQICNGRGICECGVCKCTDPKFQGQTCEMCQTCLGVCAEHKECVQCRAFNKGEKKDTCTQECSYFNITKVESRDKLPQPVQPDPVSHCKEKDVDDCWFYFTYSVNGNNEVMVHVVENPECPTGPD
T1 sequence (P08648 42-894 limits assumed): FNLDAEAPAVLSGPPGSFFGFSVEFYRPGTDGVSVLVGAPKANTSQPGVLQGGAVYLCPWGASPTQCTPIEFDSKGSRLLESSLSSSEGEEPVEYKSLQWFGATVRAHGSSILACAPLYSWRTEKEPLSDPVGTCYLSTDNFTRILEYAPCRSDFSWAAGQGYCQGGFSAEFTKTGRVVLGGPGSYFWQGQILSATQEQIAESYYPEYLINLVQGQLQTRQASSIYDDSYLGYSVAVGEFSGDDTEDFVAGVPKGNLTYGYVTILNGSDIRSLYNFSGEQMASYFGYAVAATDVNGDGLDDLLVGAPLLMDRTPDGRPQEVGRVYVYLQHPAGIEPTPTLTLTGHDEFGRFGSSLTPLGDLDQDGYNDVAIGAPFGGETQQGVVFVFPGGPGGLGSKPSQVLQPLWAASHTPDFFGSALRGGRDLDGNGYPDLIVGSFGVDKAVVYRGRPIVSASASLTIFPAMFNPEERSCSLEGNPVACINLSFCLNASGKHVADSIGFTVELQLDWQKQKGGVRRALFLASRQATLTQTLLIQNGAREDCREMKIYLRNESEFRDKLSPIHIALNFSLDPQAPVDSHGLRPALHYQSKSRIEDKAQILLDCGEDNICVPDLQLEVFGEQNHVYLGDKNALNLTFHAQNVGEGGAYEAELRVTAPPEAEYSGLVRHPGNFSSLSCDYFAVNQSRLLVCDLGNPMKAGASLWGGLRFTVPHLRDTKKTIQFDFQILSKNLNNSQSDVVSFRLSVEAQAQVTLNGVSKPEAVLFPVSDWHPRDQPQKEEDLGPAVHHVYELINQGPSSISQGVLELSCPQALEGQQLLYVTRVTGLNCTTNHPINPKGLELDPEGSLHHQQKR
T1 sequence (P08648 895-995 limits assumed): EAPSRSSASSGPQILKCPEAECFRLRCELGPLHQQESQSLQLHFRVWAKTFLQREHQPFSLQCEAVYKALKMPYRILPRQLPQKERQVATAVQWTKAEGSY
T1 sequence (P05556 21-728 limits assumed): as the sequence (P05556 21-728 limits assumed) above
rh-α5β1, sequence (P08648 42-894 limits assumed): as the sequence (P08648 42-894 limits assumed) above
rh-α5β1, sequence (P08648 895-995 limits assumed): as the sequence (P08648 895-995 limits assumed) above
rh-α5β1, sequence (P05556 21-728 limits assumed): as the sequence (P05556 21-728 limits assumed) above
T2 sequence (P11688 45-898 limits assumed): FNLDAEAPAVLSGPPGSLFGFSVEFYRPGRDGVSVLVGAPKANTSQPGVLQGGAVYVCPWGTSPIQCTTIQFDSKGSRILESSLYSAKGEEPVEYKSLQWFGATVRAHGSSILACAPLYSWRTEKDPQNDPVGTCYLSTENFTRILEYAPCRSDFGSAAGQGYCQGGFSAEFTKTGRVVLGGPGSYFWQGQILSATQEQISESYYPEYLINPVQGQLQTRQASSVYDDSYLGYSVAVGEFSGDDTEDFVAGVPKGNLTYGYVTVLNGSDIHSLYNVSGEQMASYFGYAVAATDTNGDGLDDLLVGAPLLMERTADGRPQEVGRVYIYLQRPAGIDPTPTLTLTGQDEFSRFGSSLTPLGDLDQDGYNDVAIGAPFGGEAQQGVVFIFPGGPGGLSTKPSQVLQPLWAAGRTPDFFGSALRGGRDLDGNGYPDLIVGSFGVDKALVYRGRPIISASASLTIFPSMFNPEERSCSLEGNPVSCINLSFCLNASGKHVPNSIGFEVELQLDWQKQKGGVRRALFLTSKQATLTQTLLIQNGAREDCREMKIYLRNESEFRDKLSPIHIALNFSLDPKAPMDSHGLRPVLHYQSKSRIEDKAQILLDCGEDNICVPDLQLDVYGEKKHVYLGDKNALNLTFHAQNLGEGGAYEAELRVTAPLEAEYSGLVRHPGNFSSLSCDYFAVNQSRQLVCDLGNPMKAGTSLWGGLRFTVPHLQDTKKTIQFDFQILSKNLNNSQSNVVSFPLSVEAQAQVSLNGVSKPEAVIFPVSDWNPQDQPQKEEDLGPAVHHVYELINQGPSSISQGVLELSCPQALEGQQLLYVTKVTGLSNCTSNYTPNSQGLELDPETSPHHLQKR
T2 sequence (P11688 899-999 limits assumed): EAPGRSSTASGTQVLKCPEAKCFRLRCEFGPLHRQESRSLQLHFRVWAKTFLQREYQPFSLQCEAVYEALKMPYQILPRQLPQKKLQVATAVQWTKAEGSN
T2 sequence (P09055 21-728 limits assumed): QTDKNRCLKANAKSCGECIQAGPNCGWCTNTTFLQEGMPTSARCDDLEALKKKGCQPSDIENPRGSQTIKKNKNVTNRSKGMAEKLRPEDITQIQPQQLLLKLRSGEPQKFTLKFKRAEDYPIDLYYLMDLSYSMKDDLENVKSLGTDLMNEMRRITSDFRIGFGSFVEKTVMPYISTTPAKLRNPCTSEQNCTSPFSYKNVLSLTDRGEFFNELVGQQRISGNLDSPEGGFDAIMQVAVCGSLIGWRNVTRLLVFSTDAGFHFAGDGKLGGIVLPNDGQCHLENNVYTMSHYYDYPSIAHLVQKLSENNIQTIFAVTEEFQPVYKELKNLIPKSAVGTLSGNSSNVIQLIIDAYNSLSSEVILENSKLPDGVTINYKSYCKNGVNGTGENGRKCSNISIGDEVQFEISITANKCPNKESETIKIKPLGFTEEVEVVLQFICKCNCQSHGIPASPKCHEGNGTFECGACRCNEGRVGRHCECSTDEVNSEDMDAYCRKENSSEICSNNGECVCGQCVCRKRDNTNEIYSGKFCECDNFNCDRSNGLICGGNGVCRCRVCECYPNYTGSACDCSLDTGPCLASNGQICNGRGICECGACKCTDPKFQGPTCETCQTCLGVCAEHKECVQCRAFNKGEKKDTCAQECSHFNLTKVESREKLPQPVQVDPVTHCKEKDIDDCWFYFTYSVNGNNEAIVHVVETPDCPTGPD
T4 sequence (P08648 42-894 limits assumed): as the sequence (P08648 42-894 limits assumed) above
T4 sequence (P08648 895-995 limits assumed): as the sequence (P08648 895-995 limits assumed) above
T4 sequence (P05556 21-728 limits assumed): as the sequence (P05556 21-728 limits assumed) above

| Molecule | Selected Human α5 Specific [1] | Absorbance 450 nm Mouse α5β1 [2] | Absorbance 450 nm Human α4β1 (rh-α4β1) | also measured |
| --- | --- | --- | --- | --- |
| B1 | Yes | 0.049 | 0.0558 | binding of rh-α5β1 complexed with antibody to A2-7A05 on the sensor (rh-α5β1; antibody preincubated with rh-α5β1, A2-7A05 immobilized on sensor): able to bind; binding of rh-α5β1 complexed with antibody to A-15B08 on the sensor (rh-α5β1; antibody preincubated with rh-α5β1, A-15B08 immobilized on sensor): not able to bind; binding of rh-α5β1 complexed with antibody to C-14D12 on the sensor (rh-α5β1; antibody preincubated with rh-α5β1, C-14D12 immobilized on sensor): not able to bind; Response (nm) (rh-α5β1; immobilized mAb A2-7A05): 0.07 nm; % Response (rh-α5β1; immobilized mAb A2-7A05): 198.65%; Response (nm) (rh-α5β1; immobilized mAb A-15B08): 0.10 nm; % Response (rh-α5β1; immobilized mAb A-15B08): 50.05%; Response (nm) (rh-α5β1; immobilized mAb C-14D12): 0.12 nm; % Response (rh-α5β1; immobilized mAb C-14D12): 53.28%; epitope group (rh-α5β1; two epitope groups among 6 antibodies): second group |
| B2 | – | – | – | class of FN binding blocker [3]: strong blockers of FN binding |
| B3 | Yes | 0.0551 | 0.0609 | – |
| B4 | Yes | 0.0515 | 0.0595 | – |
| B5 | Yes | 0.0619 | 0.0608 | – |
